To fix the notation:
B1: N^ε1-[2-[2-[2-[[(4S)-4-carboxy-4-(19-carboxynonadecanoylamino)butanoyl]amino]ethoxy]ethoxy]acetyl]-[Arg17,Pro21,Pro27,His34]-h-amylin (peptide)
peptide: K([AEEA-γGlu-C20 diacid])CNTATCATQRLANFLRHSSPNFGAIPSSTNVGHNTY-NH2
modifications: disulfide 2-7; N-terminus assumed
SMILES: CC[C@H](C)[C@H](NC(=O)[C@H](C)NC(=O)CNC(=O)[C@H](Cc1ccccc1)NC(=O)[C@H](CC(N)=O)NC(=O)[C@@H]1CCCN1C(=O)[C@H](CO)NC(=O)[C@H](CO)NC(=O)[C@H](Cc1c[nH]cn1)NC(=O)[C@H](CCCNC(=N)N)NC(=O)[C@H](CC(C)C)NC(=O)[C@H](Cc1ccccc1)NC(=O)[C@H](CC(N)=O)NC(=O)[C@H](C)NC(=O)[C@H](CC(C)C)NC(=O)[C@H](CCCNC(=N)N)NC(=O)[C@H](CCC(N)=O)NC(=O)[C@@H](NC(=O)[C@H](C)NC(=O)[C@@H]1CSSC[C@H](NC(=O)[C@@H](N)CCCCNC(=O)COCCOCCNC(=O)CC[C@H](NC(=O)CCCCCCCCCCCCCCCCCCC(=O)O)C(=O)O)C(=O)N[C@@H](CC(N)=O)C(=O)N[C@@H]([C@@H](C)O)C(=O)N[C@@H](C)C(=O)N[C@@H]([C@@H](C)O)C(=O)N1)[C@@H](C)O)C(=O)N1CCC[C@H]1C(=O)N[C@@H](CO)C(=O)N[C@@H](CO)C(=O)N[C@H](C(=O)N[C@@H](CC(N)=O)C(=O)N[C@H](C(=O)NCC(=O)N[C@@H](Cc1c[nH]cn1)C(=O)N[C@@H](CC(N)=O)C(=O)N[C@H](C(=O)N[C@@H](Cc1ccc(O)cc1)C(N)=O)[C@@H](C)O)C(C)C)[C@@H](C)O
notes: Analogue of human amylin; also called compound 76
B2: N^ε1-[2-[2-[2-[[(4S)-4-carboxy-4-(19-carboxynonadecanoylamino)butanoyl]amino]ethoxy]ethoxy]acetyl]-[Arg17,Pro21,Pro27,Pro28,Pro31]-h-amylin (peptide)
peptide: K([AEEA-γGlu-C20 diacid])CNTATCATQRLANFLRHSSPNFGAIPPSTPVGSNTY-NH2
modifications: disulfide 2-7
notes: Analogue of human amylin; also called compound 53
B3: N^ε1-[2-[2-[2-[[(4S)-4-carboxy-4-(19-carboxynonadecanoylamino)butanoyl]amino]ethoxy]ethoxy]acetyl]-[Arg17,Pro21,Pro27,Pro28,Pro34]-h-amylin (peptide)
peptide: K([AEEA-γGlu-C20 diacid])CNTATCATQRLANFLRHSSPNFGAIPPSTNVGPNTY-NH2
modifications: disulfide 2-7; N-terminus assumed
SMILES: CC[C@H](C)[C@H](NC(=O)[C@H](C)NC(=O)CNC(=O)[C@H](Cc1ccccc1)NC(=O)[C@H](CC(N)=O)NC(=O)[C@@H]1CCCN1C(=O)[C@H](CO)NC(=O)[C@H](CO)NC(=O)[C@H](Cc1c[nH]cn1)NC(=O)[C@H](CCCNC(=N)N)NC(=O)[C@H](CC(C)C)NC(=O)[C@H](Cc1ccccc1)NC(=O)[C@H](CC(N)=O)NC(=O)[C@H](C)NC(=O)[C@H](CC(C)C)NC(=O)[C@H](CCCNC(=N)N)NC(=O)[C@H](CCC(N)=O)NC(=O)[C@@H](NC(=O)[C@H](C)NC(=O)[C@@H]1CSSC[C@H](NC(=O)[C@@H](N)CCCCNC(=O)COCCOCCNC(=O)CC[C@H](NC(=O)CCCCCCCCCCCCCCCCCCC(=O)O)C(=O)O)C(=O)N[C@@H](CC(N)=O)C(=O)N[C@@H]([C@@H](C)O)C(=O)N[C@@H](C)C(=O)N[C@@H]([C@@H](C)O)C(=O)N1)[C@@H](C)O)C(=O)N1CCC[C@H]1C(=O)N1CCC[C@H]1C(=O)N[C@@H](CO)C(=O)N[C@H](C(=O)N[C@@H](CC(N)=O)C(=O)N[C@H](C(=O)NCC(=O)N1CCC[C@H]1C(=O)N[C@@H](CC(N)=O)C(=O)N[C@H](C(=O)N[C@@H](Cc1ccc(O)cc1)C(N)=O)[C@@H](C)O)C(C)C)[C@@H](C)O
notes: Analogue of human amylin; also called compound 55
B4: N^ε1-[2-[2-[2-[[(4S)-4-carboxy-4-(19-carboxynonadecanoylamino)butanoyl]amino]ethoxy]ethoxy]acetyl]-[Arg17,Pro21,Pro27,Pro29,Pro31]-h-amylin (peptide)
peptide: K([AEEA-γGlu-C20 diacid])CNTATCATQRLANFLRHSSPNFGAIPSPTPVGSNTY-NH2
modifications: disulfide 2-7; N-terminus assumed
SMILES: CC[C@H](C)[C@H](NC(=O)[C@H](C)NC(=O)CNC(=O)[C@H](Cc1ccccc1)NC(=O)[C@H](CC(N)=O)NC(=O)[C@@H]1CCCN1C(=O)[C@H](CO)NC(=O)[C@H](CO)NC(=O)[C@H](Cc1c[nH]cn1)NC(=O)[C@H](CCCNC(=N)N)NC(=O)[C@H](CC(C)C)NC(=O)[C@H](Cc1ccccc1)NC(=O)[C@H](CC(N)=O)NC(=O)[C@H](C)NC(=O)[C@H](CC(C)C)NC(=O)[C@H](CCCNC(=N)N)NC(=O)[C@H](CCC(N)=O)NC(=O)[C@@H](NC(=O)[C@H](C)NC(=O)[C@@H]1CSSC[C@H](NC(=O)[C@@H](N)CCCCNC(=O)COCCOCCNC(=O)CC[C@H](NC(=O)CCCCCCCCCCCCCCCCCCC(=O)O)C(=O)O)C(=O)N[C@@H](CC(N)=O)C(=O)N[C@@H]([C@@H](C)O)C(=O)N[C@@H](C)C(=O)N[C@@H]([C@@H](C)O)C(=O)N1)[C@@H](C)O)C(=O)N1CCC[C@H]1C(=O)N[C@@H](CO)C(=O)N1CCC[C@H]1C(=O)N[C@H](C(=O)N1CCC[C@H]1C(=O)N[C@H](C(=O)NCC(=O)N[C@@H](CO)C(=O)N[C@@H](CC(N)=O)C(=O)N[C@H](C(=O)N[C@@H](Cc1ccc(O)cc1)C(N)=O)[C@@H](C)O)C(C)C)[C@@H](C)O
notes: Analogue of human amylin; also called compound 54

Numbered stars: 1 amine (or outer) side, 2 acyl side, 3 side chain; on linkers, the order of the positions; unused ones are H or OH. Bridge positions count the residues as written; N and C are the ends. Side chains are listed from the residue outwards. Ends that are not written are not given here. * marks the point of attachment. C20 diacid = O=C(O)CCCCCCCCCCCCCCCCCCC(=O)*; γGlu = O=C(O)[C@H](CCC(=O)[*:2])N[*:1]; AEEA = NCCOCCOCC(=O)O

By IC50 is commonly meant the point on the concentration scale where inhibition reaches its midpoint.

The target of one test is T1, rat amylin receptor (rat calcitonin receptor + rat RAMP 3) (rat, UniProt P32214 25-516; Q9JJ73 23-147).
T1 construct: whole, on cells; Membranes prepared from transiently transfected BHK tk'ts 13 cells (Assay VI); also called rAmylin-R; rAmylin
T1 sequence (looked up) 1: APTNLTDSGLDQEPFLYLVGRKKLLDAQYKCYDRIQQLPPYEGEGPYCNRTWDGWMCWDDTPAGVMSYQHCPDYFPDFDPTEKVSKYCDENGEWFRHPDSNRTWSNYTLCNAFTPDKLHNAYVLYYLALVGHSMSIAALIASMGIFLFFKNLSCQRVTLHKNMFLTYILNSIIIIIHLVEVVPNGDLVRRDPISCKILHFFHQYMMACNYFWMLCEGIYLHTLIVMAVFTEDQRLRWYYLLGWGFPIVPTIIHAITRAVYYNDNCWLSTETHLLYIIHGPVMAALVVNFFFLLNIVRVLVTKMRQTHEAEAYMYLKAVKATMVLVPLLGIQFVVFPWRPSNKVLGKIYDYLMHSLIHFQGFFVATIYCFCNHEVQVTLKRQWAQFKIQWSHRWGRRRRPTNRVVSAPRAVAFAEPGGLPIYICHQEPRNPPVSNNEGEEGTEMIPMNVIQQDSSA
T1 sequence (looked up) 2: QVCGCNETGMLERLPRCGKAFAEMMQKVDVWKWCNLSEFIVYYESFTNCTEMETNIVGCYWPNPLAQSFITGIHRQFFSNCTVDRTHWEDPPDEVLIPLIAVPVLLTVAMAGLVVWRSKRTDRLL
Put plainly: SPA competition vs 125I-rat amylin, membranes of BHK cells with rat calcitonin receptor + rat RAMP3 (Assay VI). The procedure:
The binding assay was performed using scintillation proximity assay (SPA) beads (RPNQ0001) from PerkinElmer and cell membranes from the Amylin 3(a)/CRE-luc cells (as described in Assay (II)) were used. Membranes were prepared in the following way; the cells were rinsed with PBS and incubated with Versene for approximately 5 min before harvesting. The cells were flushed with PBS and the cell-suspension was centrifuged for 5 min at 1000 rpm. Cells were homogenized (ultrathurrax) in a buffer containing 20 mM Na-HEPES and 10 mM EDTA (pH 7.4) and centrifuged at 20.000 rpm for 15 min. The resulting pellet was resuspended, homogenized and centrifuged (20.000 rpm, 15 min) in a buffer containing 20 mM Na-HEPES and 0.1 mM EDTA (pH 7.4, buffer 2). The resulting pellet was resuspended in buffer 2 and protein concentration was measured (BCA protein Assay, Pierce). The homogenate was kept cold during the whole procedure. The membranes were kept at −80° C. until use. The assay was performed in a 384 well Optiplate (PerkinElmer) in a total volume of 40 ul. Membranes were mixed with SPA beads. Final concentration of membranes 35 ng/μL final and SPA beads was 0.05 mg/well. Test-compounds were dissolved in DMSO and further diluted in assay buffer (50 mM Hepes, pH 7.4, 1 mM CaCl2, 5 mM MgCl₂, 0.1% OA and 0.02% Tween20). […] The final mixture was incubated with shaking at 400 rpm for 120 min at 25° C. prior to centrifugation (1500 rpm, 10 min). Samples were analyzed on TopCounter™ (Packard). The IC₅₀ was calculated using (one site binding competition analysis) GraphPad Prism5 as a measure of receptor affinity.
Cells were grown in DMEM with 10% FBS and 1% Pen/Strep. Approximately 48 hours after transfection, the cells were harvested and membranes were prepared.
For the molecule B1, the half-inhibitory concentration (IC50) amounted to 0.686 nM.

Turning to B2, the half-maximal inhibitory concentration (IC50) is 0.084 nM.

B3: the IC50 was determined as 0.081 nM.

In the case of B4, the IC50 amounted to 0.049 nM.

The next test deals with T2, human calcitonin receptor (human, UniProt P30988 25-474).
T2 construct: whole, on cells; Membranes prepared from a stably transfected BHK cell line (Assay VII); also called hCTR; hCT
T2 sequence (looked up): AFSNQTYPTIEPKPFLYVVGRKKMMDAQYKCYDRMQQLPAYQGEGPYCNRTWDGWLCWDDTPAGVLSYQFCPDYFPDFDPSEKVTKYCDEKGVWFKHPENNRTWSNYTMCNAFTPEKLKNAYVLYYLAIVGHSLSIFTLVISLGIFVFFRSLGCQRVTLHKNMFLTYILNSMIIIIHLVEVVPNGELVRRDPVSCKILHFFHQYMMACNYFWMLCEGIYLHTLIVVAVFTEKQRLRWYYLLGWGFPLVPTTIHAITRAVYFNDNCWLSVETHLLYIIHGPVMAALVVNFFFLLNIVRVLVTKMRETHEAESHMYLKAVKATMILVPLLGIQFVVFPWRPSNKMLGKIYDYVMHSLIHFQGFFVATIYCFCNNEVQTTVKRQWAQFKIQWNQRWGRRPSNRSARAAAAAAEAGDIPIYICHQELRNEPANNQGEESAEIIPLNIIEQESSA
Kind of test: ratio of binding IC50s: human calcitonin receptor / human amylin receptor (reference). The procedure: The resulting pellet was resuspended, homogenized and centrifuged (20.000 rpm, 15 min) in a buffer containing 20 mM Na-HEPES and 0.1 mM EDTA (pH 7.4, buffer 2). The resulting pellet was resuspended in buffer 2 and protein concentration was measured (BCA protein Assay, Pierce). The homogenate was kept cold during the whole procedure. The membranes were kept at −80° C. until use. The assay was performed in a 384 well Optiplate (PerkinElmer) in a total volume of 40 ul. Membranes were mixed with SPA beads. Final concentration of membranes 35 ng/μL final and SPA beads was 0.05 mg/well. Test-compounds were dissolved in DMSO and further diluted in assay buffer (50 mM Hepes, pH 7.4, 1 mM CaCl2, 5 mM MgCl₂, 0.1% OA and 0.02% Tween20). […] The final mixture was incubated with shaking at 400 rpm for 120 min at 25° C. prior to centrifugation (1500 rpm, 10 min). Samples were analyzed on TopCounter™ (Packard). The IC₅₀ was calculated using (one site binding competition analysis) GraphPad Prism5 as a measure of receptor affinity.
Membranes were prepared in the following way; the cells were rinsed with PBS and incubated with Versene for approximately 5 min before harvesting. The cells were flushed with PBS and the cell-suspension was centrifuged for 5 min at 1000 rpm. Cells were homogenized (Ultrathurrax) in a buffer containing 20 mM Na-HEPES and 10 mM EDTA (pH 7.4) and centrifuged at 20.000 rpm for 15 min. The resulting pellet was resuspended, homogenized and centrifuged (20.000 rpm, 15 min) in a buffer containing 20 mM Na-HEPES and 0.1 mM EDTA (pH 7.4, buffer 2). The resulting pellet was resuspended in buffer 2 and protein concentration was measured (BCA protein Assay, Pierce). The homogenate was kept cold during the whole procedure. The membranes were kept at −80° C. until use. Assay was performed in a 384 well Optiplate (PerkinElmer) in a total volume of 40 ul. Membranes were mixed with SPA beads.
For the molecule B1, the “Ratio hCT/hAmylin binding” value is 80.

B2: the “Ratio hCT/hAmylin binding” value came to 104.

For B3, the “Ratio hCT/hAmylin binding” value came out at 51.8.

As to B4, the “Ratio hCT/hAmylin binding” value was 146.

The target of the next test is T3, rat calcitonin receptor (rat, UniProt P32214 25-516).
T3 construct: whole, on cells; Membranes prepared from transiently transfected BHK tk'ts 13 cells (Assay VIII); also called rCTR; rCT
T3 sequence (looked up): T1 sequence (looked up) 1
Put plainly: ratio of binding IC50s: rat calcitonin receptor / rat amylin receptor (reference).
For the molecule B1, the “Ratio rCT/rAmylin binding” value was found to be 56.8.

With B2, the “Ratio rCT/rAmylin binding” value stood at 130.

For the molecule B3, the “Ratio rCT/rAmylin binding” value was determined as 77.2.

Regarding B4, the “Ratio rCT/rAmylin binding” value came to 179.

The next test addresses T3, rat calcitonin receptor. Kind of test: SPA competition vs 125I-calcitonin, membranes of BHK cells with rat calcitonin receptor (Assay VIII).
Consider B1, for which the IC50 is 38.9 nM.

With B2, the half-inhibitory concentration (IC50) was 10.9 nM.

In the case of B3, the concentration for half-maximal inhibition (IC50) was determined as 6.25 nM.

As to B4, the half-inhibitory concentration (IC50) came to 8.79 nM.

The values above are taken from US20140087995A1 (published 2014).
